What was measured:
[1] = biological target: T1, Shaker Kv1.1 channels (ShB-IR) (Drosophila melanogaster, UniProt P08510, DEL6-46); test: ShB-IR K+ currents in oocytes, two-electrode voltage clamp; assay type: cell-based; details: 24 nM recombinant ChTx
T1 construct: expressed in transfected cells; host or cells: Xenopus oocytes injected with cRNA
Experimental: For ShB-IR, holding potential was −90 mV. Leak subtraction used a P/4 protocol with a conditioning pulse to −120 mV. Voltage was stepped from −100 mV post-train to potentials ranging from −40 to 0 mV in 10 mV increments.
Adult female Xenopus were obtained from Xenopus One (Ann Arbor, Mich.). […] For experiments with ShB-IR, oocytes were injected with 0.06-1 ng cRNA. Leak currents were subtracted using a P/4 protocol; corrected traces are shown.
For these experiments, the ShB variant was used with inactivation-removed (ShB-IR).

[2] = biological target: T1, Shaker Kv1.1 channels (ShB-IR); details: read-out: reported Ki for inhibition of Shaker channels; cited from earlier work

T1 sequence (P08510 with tags, fused parts or gaps DEL6-46): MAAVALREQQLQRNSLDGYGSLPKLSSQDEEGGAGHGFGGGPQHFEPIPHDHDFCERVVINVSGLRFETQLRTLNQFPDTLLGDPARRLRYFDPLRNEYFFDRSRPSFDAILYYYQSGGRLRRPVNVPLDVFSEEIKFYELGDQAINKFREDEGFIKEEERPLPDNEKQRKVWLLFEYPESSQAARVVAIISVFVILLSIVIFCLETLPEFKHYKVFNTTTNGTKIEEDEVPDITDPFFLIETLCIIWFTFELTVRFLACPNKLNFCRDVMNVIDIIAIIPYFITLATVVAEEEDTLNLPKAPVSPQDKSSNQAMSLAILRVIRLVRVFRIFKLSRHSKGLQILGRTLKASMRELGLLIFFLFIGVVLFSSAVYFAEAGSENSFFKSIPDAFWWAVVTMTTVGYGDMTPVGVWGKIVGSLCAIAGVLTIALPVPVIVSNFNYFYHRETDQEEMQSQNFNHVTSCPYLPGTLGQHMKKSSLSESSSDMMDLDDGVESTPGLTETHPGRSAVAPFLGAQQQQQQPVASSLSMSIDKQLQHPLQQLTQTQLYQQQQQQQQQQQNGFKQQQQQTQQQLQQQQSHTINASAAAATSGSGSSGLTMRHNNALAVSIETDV

Substance: charybdotoxin [ChTx]
- inhibition of ShB-IR currents [1]: 15%
- Ki [2]: ~200 nM
